B1: TRIM55 (parent)
chain: ICPICLEMFTKPVVILPCQHNLCR
B2: TRIM55 (parent)
chain: YKSFSKEQQTMDNLEKQLICPICL

Variants of: B1
Experiment: protein stability index of a GFP-peptide fusion (GPS, HEK-293T) (PSI 1-6); higher = more stable
Conditions: c terminus: a fixed tail appended
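Also: lentivirally expressed fusions sorted by FACS into six bins by GFP to DsRed ratio, PSI derived from sequencing read proportions per bin multiplied by bin number.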

Protein stability index of substitutions, site by site:
P3: E 2.21, A 1.27, D 2.53, C 1.63
I1: A 2.56, G 2.46, W 2.59, R 2.75, H 2.62, D 2.75, L 2.72, Y 1.92, E 2.85, F 2.58, Q 3.01, V 2.4, K 2.75, M 2.44, S 2.72, C 2.36, N 2.55, T 2.51, P 2.19
C2: A 2.31, T 1.6, G 1.77, W 1.22, E 2.05, Y 2.49, P 1.93, M 1.67, I 1.56, F 2.02, S 2.55, K 2.15, R 2.03, N 1.78, Q 1.73, L 2.04, H 1.96, V 2.11, D 1.96

Variants of: B2
Experiment: as above
Conditions: c terminus: a fixed tail appended

Protein stability index: each site, then its substitutions
D12: I 1.93, S 1.93, R 1.93, C 2.17, L 2.14, E 2.59, Q 2.1, H 1.93, T 2.42, Y 2.57, W 2.11, V 1.89, N 2.37, K 2.98, G 2.56, M 2.26, P 2.43, A 2.04, F 2.68
C23: A 2.29, D 3.64, L 1.72, W 1.65, Y 2.04, E 2.85, H 2.19, M 1.66, N 3.15, V 1.7, Q 3.13, G 2.67, P 1.86, I 1.93, F 2.04, S 2.6, K 3.13, R 2.37, T 2
L24: N 2.46, T 1.98, Q 2.22, S 2.13, W 2.37, Y 2.88, K 2.63, G 2.46, F 2.15, A 1.92, P 3.03, C 2.07, D 2, M 2.33, R 2.31, H 2.5, E 2.13, I 2.7
I22: S 2.75, E 2.93, L 2.18, N 3.48, Y 2.55, M 2.31, K 2.9, Q 2.03, V 1.96, A 2.23, D 2.78, G 2.9, F 2.21, R 3.81, P 2.7, H 2.15, T 2.55, C 2.66
L14: K 2.58, E 3.2, N 2.73, V 2.23, C 2.51, P 2.7, W 2.81, A 3.03, H 2.13, Q 3.27, T 3.03, R 2.58, M 2.53, I 2.06, Y 1.98, F 1.88, S 2.8, G 2.6, D 2.53
I19: Y 2.02, W 1.51, V 2.06, T 2.76, K 2.55, F 2.09, P 2.29, M 1.88, Q 2.81, L 1.96, E 3.01, S 2.37, D 2.56, N 2.71, R 2.63, G 2.8, H 2.25, A 1.99
L18: W 1.95, E 3.19, T 2.54, K 2.48, Q 2.08, S 2.49, F 2.55, V 3.42, D 2.98, G 2.84, Y 2.18, H 2.75, A 2.81, R 3.17, C 3.72, M 2.62, N 2.96, I 2.31, P 2.87
N13: Y 1.83, V 1.68, C 2.02, G 2.35, M 1.69, T 2.81, F 2.34, Q 2.53, S 1.91, A 1.57, L 2.82, P 2.03, R 1.79, D 2.77, W 2.05, K 2.09, I 1.77, E 1.87, H 1.95
Q17: D 2.76, N 1.89, Y 2.02, W 2.31, P 1.68, V 2.01, F 2.59, L 2, K 2.32, I 1.65, S 1.72, E 2.32, T 1.98, R 2.22, H 2.23, G 2.16, C 2.12, A 1.79, M 1.48
M11: W 1.55, I 1.83, N 3.68, A 2.74, H 1.82, R 2.77, E 2.69, V 2.68, Y 2.1, L 2.3, P 2.66, D 2.68, G 2.22, F 2.24, C 2.47, S 2.29, K 2.54, Q 2.69, T 2.12
Q9: I 1.79, Y 2.7, W 1.67, R 2.5, E 2.08, F 1.79, H 1.98, P 2.16, V 1.76, S 1.75, T 1.57, N 2.22, G 2.39, L 1.87, M 2.17, K 2.15, D 2.8
T10: N 2.26, L 2.18, A 1.74, H 2.03, C 2.82, R 2.03, K 2.54, V 2.04, E 2.33, W 1.77, M 1.9, I 1.65, G 2.27, S 2.46, Q 2.31, F 1.29, D 2.08, Y 1.92, P 2.53
P21: A 1.66, Y 3.21, R 1.35, F 1.74, N 1.24, D 1.07, Q 2.4, K 2.07, W 2.53, L 1.67, G 2.21, T 1.77, V 2.08, S 3.16
K16: S 1.81, Y 1.67, R 2.03, Q 1.83, G 2.08, N 2.07, F 2.14, M 2.15, V 1.76, W 1.88, L 1.68, D 2.33, T 2.23, H 2.89, P 2.57, I 1.42, E 1.68, C 1.82, A 1.8
C20: L 2.29, S 2.4, T 2.44, P 2.86, W 1.85, D 2.51, V 1.78, I 1.62, M 1.82, A 1.54, K 1.88, F 2.22, N 2.42, G 2.52, Q 2.05, E 3.21, H 2.27, Y 2.03, R 2.11
E15: C 2.72, W 1.45, N 2.33, G 2.41, L 1.05, P 2.51, R 2.12, H 2.27, A 2.79, S 1.79, D 2.13, T 2.9, V 1.27, F 2.1, M 2.55, K 2.09, Q 2.58
